Assay results reported in patent publication US6916645B2, “Amylases” (Kao Corporation, priority 1998, dated 2005).

What was measured:
[1] = EDTA or EGTA resisting performance (residual enzyme activity); format: physicochemical; conditions: 0 to 100 mM EDTA or EGTA, pH 10, 30, 40 or 45° C., 30 minutes; FIGS. 1 and 2
Description: After 9.3 g of EDTA (product of Sigma Chemical Co., Ltd.) was dissolved in about 80 mL of deionized water, the resulting solution was adjusted to pH 8 with an about SN aqueous sodium hydroxide solution by using a pH meter. To the pH-adjusted solution, deionized water was added to give a total volume of 100 mL, whereby a 250 mM EDTA solution was prepared. The resulting solution was diluted with deionized water to prepare 10 to 100 mM EDTA solutions.
After 9.5 g of EGTA (product of Sigma Chemical Co., Ltd.) was dissolved in about 80 mL of deionized water, the resulting solution was adjusted to pH 8 with an about 5N aqueous sodium hydroxide solution by using a pH meter. To the pH-adjusted solution, deionized water was added to give a total volume of 100 mL, whereby a 250 mM EGTA solution was prepared. The resulting solution was diluted with deionized water to prepare 10 to 100 mM EGTA solutions.
In a test tube, 0.1 mL of the 10 mM EDTA solution, 0.2 mL of the 250 mM glycine sodium hydroxide buffer (pH 10) and 0.1 mL of deionized water were charged, followed by preliminary heating in a water bath of 45° C. for about 5 minutes. […] Thirty minutes later, a 0.1 mL portion of the resulting solution was added to 0.9 mL of the substrate solution preliminary heated in a water bath of 50° C. and the residual enzyme activity was measured in accordance with the amylase activity measuring method. […]

[2] = Effects of metal salts (inhibition ratio); format: biochemical; conditions: pH 10, 30° C., 30 minutes; for inhibition ratio by Mn2+: 1 mM Mn2+
Description: Each of them was treated at pH 10 and 30° C. for 30 minutes in the presence of various metal salts, whereby their effects were studied.

[3] = Specific activity: amylase activity measuring method and protein assay kit; format: biochemical; conditions: pH 10 glycine sodium hydroxide buffer, 50° C., 15 minutes, soluble starch as substrate
Description: In a test tube, 0.5 mL of the 1% aqueous solution of soluble starch, 0.2 mL of the 250 mM glycine sodium hydroxide buffer (pH 10) and 0.2 mL of deionized water (said mixture will hereinafter be called “substrate solution”) were charged, followed by preliminary heating for about 5 minutes in a water bath of 50° C. After preliminary heating, 0.1 ml of a properly diluted enzyme solution was added to the reaction mixture, followed by reaction at 50° C. for 15 minutes. After completion of the reaction, 1.0 mL of the DNS reagent was added to the reaction mixture, followed by color development by heating in boiling water for 5 minutes. Immediately after that, the solution was allowed to cool down in an ice-water bath. The resulting solution, after cooling, was added with 4.0 mL of deionized water, followed by mixing. The absorbance of the solution at 535 nm was then measured.
In a test tube, 0.9 mL of the substrate solution was charged, followed by the addition of 1.0 mL of the DNS reagent and then with 0.1 mL of an enzyme solution. The resulting mixture was heated in a boiling water for 5 minutes to cause color development. […] The absorbance of the solution at 535 nm was then measured.
In a test tube, 0.9 mL of the substrate solution was charged, followed by the addition of 1.0 mL of the DNS reagent and then with 0.1 mL of each of the glucose solutions for a calibration curve having various concentrations. […] The absorbance of the solution at 535 nm was then measured. On a graph, the glucose concentration (μmol/0.1 mL) was plotted as abscissa and the absorbance as ordinate and the slope of those linear plots was determined by the least square method. A conversion factor (F) was calculated in accordance with the following formula: Conversion Factor (F)=[1/(slope)]×[1/15]×[1000/0.1]
With the amount of the enzyme which formed reducing sugar equivalent to 1 μmol of glucose in one minute was defined as one unit (1U), the titer of the enzyme was calculated in accordance with the following formula: Activity of amylase (U/L)=[δ-absorbance]×[conversion factor (F)]×[dilution ratio] […]

[4] = Resisting performance against citric acid or zeolite (residual enzyme activity); format: physicochemical; conditions: 0 to 0.5% trisodium citrate or synthetic zeolite A-3, pH 10, 40 or 45° C., 30 minutes; FIGS. 3 to 6
Description: To a 50 mM glycine sodium hydroxide buffer (pH 10) containing trisodium citrate dihydrate (guaranteed class product of Wako Pure Chemical Industries, Ltd.) or synthetic zeolite A-3 (product of Wako Pure Chemical Industries, Ltd.) having each of final concentrations of 0 to 0.5%, a purified enzyme properly diluted with a 10 mM glycine sodium hydroxide buffer (pH 10) was added, followed by treatment at each of predetermined temperatures (40° C. and 45° C.) for 30 minutes. The residual enzyme activity of the reaction mixture was measured in accordance with the amylase activity measuring method [with a 50 mM glycine sodium hydroxide buffer (pH 10)].

Row | Molecule | resisting performance against EDTA or EGTA (residual activity) [1] | inhibition ratio by Cd2+ (K38 sentence) ([2]; 1 mM Cd2+) | inhibition ratio by Mn2+ [2] | inhibition ratio by Sr2+ ([2]; 1 mM Sr2+) | Specific activity [3] [U/mg] | resisting performance against citric acid or zeolite (residual activity) [4]
1 | K38: purified liquefying alkaline amylase obtained from strain Bacillus sp. KSM-K38 (FERM BP-6946); SEQ ID NO:4 (protein, listed as Bacillus sp.) MRRWVVAMLAVLFLFPSVVVADGLNGTMMQYYEWHLENDGQHWNRLHDDAAALSDAGITAIWIPPAYKGNSQADVGYGAYDLYDLGEFNQKGTVRTKYGTKAQLERAIGSLKSNDINVYGDVVMNHKMGADFTEAVQAVQVNPTNRWQDISGAYTIDAWTGFDFSGRNNAYSDFKWRWFHFNGVDWDQRYQENHIFRFANTNWNWRVDEENGNYDYLLGSNIDFSHPEVQDELKDWGSWFTDELDLDGYRLDAIKHIPFWYTSDWVRHQRNEADQDLFVVGEYWKDDVGALEFYLDEMNWEMSLFDVPLNYNFYRASQQGGSYDMRNILRGSLVEAHPMHAVTFVDNHDTQPGESLESWVADWFKPLAYATILTREGGYPNVFYGDYYGIPNDNISAKKDMIDELLDARQNYAYGTQHDYFDHWDVVGWTREGSSSRPNSGLATIMSNGPGGSKWMYVGRQNAGQTWTDLTGNNGASVTINGDGWGEFFTNGGSVSVYVNQ | not influenced by highly concentrated EDTA or EGTA | about 30% | about 75% | about 30% | 3600 | influenced by neither citric acid nor zeolite
2 | K36: purified liquefying alkaline amylase obtained from strain Bacillus sp. KSM-K36 (FERM BP-6945); SEQ ID NO:2 (protein, listed as Bacillus sp.) MKRWVVAMLAVLFLFPSVVVADGLNGTMMQYYEWHLENDGQHWNRLHDDAEALSNAGITAIWIPPAYKGNSQADVGYGAYDLYDLGEFNQKGTVRTKYGTKAQLERAIGSLKSNDINVYGDVVMNHKLGADFTEAVQAVQVNPSNRWQDISGVYTIDAWTGFDFPGRNNAYSDFKWRWFHFNGVDWDQRYQENHLFRFANTNWNWRVDEENGNYDYLLGSNIDFSHPEVQEELKDWGSWFTDELDLDGYRLDAIKHIPFWYTSDWVRHQRSEADQDLFVVGEYWKDDVGALEFYLDEMNWEMSLFDVPLNYNFYRASKQGGSYDMRNILRGSLVEAHPIHAVTFVDNHDTQPGESLESWVADWFKPLAYATILTREGGYPNVFYGDYYGIPNDNISAKKDMIDELLDARQNYAYGTQHDYFDHWDIVGWTREGTSSRPNSGLATIMSNGPGGSKWMYVGQQHAGQTWTDLTGNHAASVTINGDGWGEFFTNGGSVSVYVNQ | not influenced by highly concentrated EDTA or EGTA |  | about 95% |  | 4300 | influenced by neither citric acid nor zeolite
3 | Duramyl: amylase derived from Bacillus licheniformis, purified from a Novo product in granular form (protein, UniProt P06278 30-512, looked up) Alpha-amylase: ANLNGTLMQYFEWYMPNDGQHWKRLQNDSAYLAEHGITAVWIPPAYKGTSQADVGYGAYDLYDLGEFHQKGTVRTKYGTKGELQSAIKSLHSRDINVYGDVVINHKGGADATEDVTAVEVDPADRNRVISGEHRIKAWTHFHFPGRGSTYSDFKWHWYHFDGTDWDESRKLNRIYKFQGKAWDWEVSNENGNYDYLMYADIDYDHPDVAAEIKRWGTWYANELQLDGFRLDAVKHIKFSFLRDWVNHVREKTGKEMFTVAEYWQNDLGALENYLNKTNFNHSVFDVPLHYQFHAASTQGGGYDMRKLLNSTVVSKHPLKAVTFVDNHDTQPGQSLESTVQTWFKPLAYAFILTRESGYPQVFYGDMYGTKGDSQREIPALKHKIEPILKARKQYAYGAQHDYFDHHDIVGWTREGDSSVANSGLAALITDGPGGAKRMYVGRQNAGETWHDITGNRSEPVVINSEGWGEFHVNGGSVSIYVQR |  |  |  |  | 500 | 
